Patent US20160213766A1 (VENTRIA BIOSCIENCE, published 2016)

Biological target: the molecule itself
Assay: Western blot under non-reducing, non-heated conditions; self-association

B1: rice-derived CTB.OspA fusion protein (other)
chain: TPQNITDLCAEYHNTQIHTLNDKIFSYTESLAGKREMAIITFKNGATFQVEVPGSQHIDSQKKAIERMKDTLRIAYLTEAKVEKLCVWNNKTPHAIAAISMANPGPGPGCKQNVSSLDEKNSVSVDLPGEMKVLVSKEKNKDGKYDLIATVDKLELKGTSDKNNGSGVLEGVKADKSKVKLTISDDLGQTTLEVFKEDGKTLVSKKVTSKDKSSTEEKFNEKGEVSEKIITRADGTRLEYTGIKSDGSGKAKEVLKGYVLEGTLTAEKTTLVVKEGTVTLSKNIAKSGEVSVELNDADSSAATKKTAAWNSGTSTLTITVNSKKTKDLVFTKENTITVQQYDSAGTKLEGSAVEITKLDEIKNALK
notes: also called OspA-CTB fusion protein; rice CTB.OspA fusion protein
binding result: binds
